Laboratory results taken from IntAct's records for PubMed 29892012.

B1: E3 ubiquitin-protein ligase DZIP3 (Homo sapiens), Q86Y13 (parent)
chain: MDSLPDEFFVRHPAVEDQRKEETENKLEKSSGQLNKQENDIPTDLVPVNLLLEVKKLLNAINTLPKGVVPHIKKFLQEDFSFQTMQREVAANSQNGEEIVPALTLRFLITQLEAALRNIQAGNYTAHQINIGYYLTLLFLYGVALTERGKKEDYTEAENKFLVMKMMIQENEICENFMSLVYFGRGLLRCAQKRYNGGLLEFHKSLQEIGDKNDHWFDIDPTEDEDLPTTFKDLLNNFIKTTESNIMKQTICSYLDCERSCEADILKNTSYKGFFQLMCSKSCCVYFHKICWKKFKNLKYPGENDQSFSGKKCLKEGCTGDMVRMLQCDVPGIVKILFEVVRKDEYITIENLGASYRKLISLKITDTDIRPKISLKFNTKDEMPIFKLDYNYFYHLLHIIIISGTDIVRQIFDEAMPPPLLKKELLIHKNVLESYYNHLWTNHPLGGSWHLLYPPNKELPQSKQFDLCLLLALIKHLNVFPAPKKGWNMEPPSSDISKSADILRLCKYRDILLSEILMNGLTESQFNSIWKKVSDILLRLGMMQEDIDKVKENPIENISLDYHQLSVYLGIPVPEIIQRMLSCYQQGIALQSITGSQRIEIEELQNEEEELSPPLMEYNINVKSHPEIQFAEINKDGTSIPSESSTESLKDLQEVKSKQRKKKKTKNKKNKDSKEDQVPYVVEKEEQLRKEQANPHSVSRLIKDDASDVQEDSAMEDKFYSLDELHILDMIEQGSAGKVTTDYGETEKERLARQRQLYKLHYQCEDFKRQLRTVTFRWQENQMQIKKKDKIIASLNQQVAFGINKVSKLQRQIHAKDNEIKNLKEQLSMKRSQWEMEKHNLESTMKTYVSKLNAETSRALTAEVYFLQCRRDFGLLHLEQTEKECLNQLARVTHMAASNLESLQLKAAVDSWNAIVADVRNKIAFLRTQYNEQINKVKQGFALSTLPPVQLPPPPPSPEILMQQFLGRPLVKESFFRPILTVPQMPAVCPGVVSATGQPRAPLMTGIAWALPAPVGDAVPPSAGLRSDPSIMNWERITDRLKTAFPQQTRKELTDFLRKLKDAYGKSLSELTFDEIVCKISQFIDPKKSQSQGKSVSNVNCVSPSHSPSQPDAAQPPKPAWRPLTSQGPATWEGASNPDEEEEEEEPCVICHENLSPENLSVLPCAHKFHAQCIRPWLMQQGTCPTCRLHVLLPEEFPGHPSRQLPKI
B2: Coiled-coil domain-containing protein 158 (Homo sapiens), Q5M9N0 (parent)
chain: MESKAWESNNEDLLSSSGVTSNGGSSSSFFVSSIRGTIIENTSSAGTLTQVPFFPKYEVELDSPRKIIPSPGKEHFERVLEEYSHQVKDLQRRLNESNELHEKQKFYLRQSVIDLQTKLQEMQMERDAMADIRRRESQSQEDLRNQLQNTVHELEAAKCLKEDMLKDSNTQIEQLRKMMLSHEGVLQEIRSILVDFEEASGKKICEHDSMSTLHFRSLGSAISKILRELDTEISYLKGRIFPVEDQLEALKSESQNKIELLLQQHQDRIEQLISEHEVEITGLTEKASSARSQANSIQSQMEIIQEQARNQNSMYMRQLSDLESTVSQLRSELREAKRMYEDKTEELEKQLVLANSELTEARTERDQFSQESGNLDDQLQKLLADLHKREKELSLEKEQNKRLWDRDTGNSITIDHLRRELDNRNMEVQRLEALLKALKSECQGQMERQMAAIQGKNESLEKVSSLTAQLESTKEMLRKVVEELTAKKMTLESSERTISDLTTSLQEKERAIEATNAEITKLRSRVDLKLQELQHLKNEGDHLRNVQTECEALKLQMTEKDKVIEILRQQIENMTQLVGQHGRTAGAMQVEKAQLEKEINDRRMELKELKILKDKKDAKIRELEARVSDLELEKVKLVNAGSERLRAVKDIKQERDQLLNEVKTSRSELNNLSEEYEVLKRNFRNKSEEMEMTTNKLKMQLKSAQSELEQTRNTLKSMEGSDGHAMKVAMGMQKQITAKRGQIDALQSKIQFLEEAMTNANKEKHFLKEEKSKLSQELSTVATEKNKMAGELEVLRSQERRLKEKVTNMEVALDKASLQFAECQDIIQRQEQESVRLKLQHTLDIKELQGPGYTSNSSLKPRLLQPASVTRSHSNVPSSQSTASFLSHHSTKANTLKEDPTRDLKQLLQELRSVINEEPAVSLSKTEEDGRTSLGALEDRVRDCITESSLRSDMCHRSNNSLRDSTEGSKSSETLSREPVTLHAGDREDPSGCFTFTSAASPSVKNSASRSFNSSPKKSPVHSLLTSSVEGSIGSTSQYRSAKPIHSSDSVKDSQSPPIETTGKTCRKLQNRLESLQTLVEDLQLKNQAMSSMIRNQEKRIQKVKDQEKMLLK
partner: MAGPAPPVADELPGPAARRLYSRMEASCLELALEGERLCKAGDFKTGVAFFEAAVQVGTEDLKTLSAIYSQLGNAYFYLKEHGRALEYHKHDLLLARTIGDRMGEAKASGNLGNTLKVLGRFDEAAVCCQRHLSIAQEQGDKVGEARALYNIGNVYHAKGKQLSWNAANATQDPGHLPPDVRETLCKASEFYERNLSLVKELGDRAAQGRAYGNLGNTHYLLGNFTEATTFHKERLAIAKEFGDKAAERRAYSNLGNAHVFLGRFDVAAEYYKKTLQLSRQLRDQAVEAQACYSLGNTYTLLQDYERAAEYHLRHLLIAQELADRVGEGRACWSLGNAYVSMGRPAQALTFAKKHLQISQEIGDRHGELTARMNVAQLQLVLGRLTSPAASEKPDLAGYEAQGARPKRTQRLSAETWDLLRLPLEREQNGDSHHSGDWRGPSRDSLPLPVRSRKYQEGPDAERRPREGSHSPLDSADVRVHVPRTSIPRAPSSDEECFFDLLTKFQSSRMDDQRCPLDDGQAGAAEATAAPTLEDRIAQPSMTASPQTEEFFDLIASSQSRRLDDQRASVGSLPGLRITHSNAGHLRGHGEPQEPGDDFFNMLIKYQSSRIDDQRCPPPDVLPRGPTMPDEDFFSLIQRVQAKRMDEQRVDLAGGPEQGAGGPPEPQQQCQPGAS
B3: E3 ubiquitin-protein ligase LNX (Homo sapiens), Q8TBB1 (parent)
chain: MNQPESANDPEPLCAVCGQAHSLEENHFYSYPEEVDDDLICHICLQALLDPLDTPCGHTYCTLCLTNFLVEKDFCPMDRKPLVLQHCKKSSILVNKLLNKLLVTCPFREHCTQVLQRCDLEHHFQTSCKGASHYGLTKDRKRRSQDGCPDGCASLTATAPSPEVSAAATISLMTDEPGLDNPAYVSSAEDGQPAISPVDSGRSNRTRARPFERSTIRSRSFKKINRALSVLRRTKSGSAVANHADQGRENSENTTAPEVFPRLYHLIPDGEITSIKINRVDPSESLSIRLVGGSETPLVHIIIQHIYRDGVIARDGRLLPGDIILKVNGMDISNVPHNYAVRLLRQPCQVLWLTVMREQKFRSRNNGQAPDAYRPRDDSFHVILNKSSPEEQLGIKLVRKVDEPGVFIFNVLDGGVAYRHGQLEENDRVLAINGHDLRYGSPESAAHLIQASERRVHLVVSRQVRQRSPDIFQEAGWNSNGSWSPGPGERSNTPKPLHPTITCHEKVVNIQKDPGESLGMTVAGGASHREWDLPIYVISVEPGGVISRDGRIKTGDILLNVDGVELTEVSRSEAVALLKRTSSSIVLKALEVKEYEPQEDCSSPAALDSNHNMAPPSDWSPSWVMWLELPRCLYNCKDIVLRRNTAGSLGFCIVGGYEEYNGNKPFFIKSIVEGTPAYNDGRIRCGDILLAVNGRSTSGMIHACLARLLKELKGRITLTIVSWPGTFL
partner: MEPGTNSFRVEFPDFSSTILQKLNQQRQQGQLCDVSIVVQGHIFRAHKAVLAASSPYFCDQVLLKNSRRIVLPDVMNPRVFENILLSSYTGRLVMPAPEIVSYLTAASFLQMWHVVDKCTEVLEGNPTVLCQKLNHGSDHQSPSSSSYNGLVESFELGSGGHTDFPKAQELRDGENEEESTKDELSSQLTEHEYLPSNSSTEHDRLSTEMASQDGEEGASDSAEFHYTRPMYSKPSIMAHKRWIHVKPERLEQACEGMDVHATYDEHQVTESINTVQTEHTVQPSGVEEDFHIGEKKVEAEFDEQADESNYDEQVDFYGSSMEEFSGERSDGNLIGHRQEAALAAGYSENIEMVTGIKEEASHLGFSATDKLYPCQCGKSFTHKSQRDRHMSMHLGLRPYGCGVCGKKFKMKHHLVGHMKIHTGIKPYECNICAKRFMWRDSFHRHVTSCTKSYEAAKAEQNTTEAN

Variants of: B1
Conditions: with ub2e2_human UBE2E2, Q96LR5
ub2e2_human UBE2E2, Q96LR5, sequence (Q96LR5 whole entry): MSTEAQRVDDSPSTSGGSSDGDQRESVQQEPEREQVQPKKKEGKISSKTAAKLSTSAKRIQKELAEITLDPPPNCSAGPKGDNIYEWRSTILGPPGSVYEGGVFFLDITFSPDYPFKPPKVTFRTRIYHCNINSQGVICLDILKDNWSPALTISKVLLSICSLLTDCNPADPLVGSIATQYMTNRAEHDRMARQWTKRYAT

| Variant | effect of a mutation on the interaction |
| --- | --- |
| M1032R | disrupting interaction strength |

Variants of: B1
Conditions: with znf24_human ZNF24, P17028
znf24_human ZNF24, P17028, sequence (P17028 whole entry): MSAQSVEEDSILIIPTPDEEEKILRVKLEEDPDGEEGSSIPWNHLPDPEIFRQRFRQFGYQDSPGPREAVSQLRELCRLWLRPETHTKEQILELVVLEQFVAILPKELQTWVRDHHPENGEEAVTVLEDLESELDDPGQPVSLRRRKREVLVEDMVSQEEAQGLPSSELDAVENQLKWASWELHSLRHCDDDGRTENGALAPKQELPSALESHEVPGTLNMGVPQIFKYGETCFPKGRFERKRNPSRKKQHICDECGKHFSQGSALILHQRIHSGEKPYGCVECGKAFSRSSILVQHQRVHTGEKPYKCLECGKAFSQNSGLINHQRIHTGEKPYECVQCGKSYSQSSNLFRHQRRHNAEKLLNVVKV

| Variant | effect of a mutation on the interaction |
| --- | --- |
| M1032R | disrupting interaction strength |

Variants of: B1
Conditions: with hnrl1_human HNRNPUL1, Q9BUJ2
hnrl1_human HNRNPUL1, Q9BUJ2, sequence (Q9BUJ2 whole entry): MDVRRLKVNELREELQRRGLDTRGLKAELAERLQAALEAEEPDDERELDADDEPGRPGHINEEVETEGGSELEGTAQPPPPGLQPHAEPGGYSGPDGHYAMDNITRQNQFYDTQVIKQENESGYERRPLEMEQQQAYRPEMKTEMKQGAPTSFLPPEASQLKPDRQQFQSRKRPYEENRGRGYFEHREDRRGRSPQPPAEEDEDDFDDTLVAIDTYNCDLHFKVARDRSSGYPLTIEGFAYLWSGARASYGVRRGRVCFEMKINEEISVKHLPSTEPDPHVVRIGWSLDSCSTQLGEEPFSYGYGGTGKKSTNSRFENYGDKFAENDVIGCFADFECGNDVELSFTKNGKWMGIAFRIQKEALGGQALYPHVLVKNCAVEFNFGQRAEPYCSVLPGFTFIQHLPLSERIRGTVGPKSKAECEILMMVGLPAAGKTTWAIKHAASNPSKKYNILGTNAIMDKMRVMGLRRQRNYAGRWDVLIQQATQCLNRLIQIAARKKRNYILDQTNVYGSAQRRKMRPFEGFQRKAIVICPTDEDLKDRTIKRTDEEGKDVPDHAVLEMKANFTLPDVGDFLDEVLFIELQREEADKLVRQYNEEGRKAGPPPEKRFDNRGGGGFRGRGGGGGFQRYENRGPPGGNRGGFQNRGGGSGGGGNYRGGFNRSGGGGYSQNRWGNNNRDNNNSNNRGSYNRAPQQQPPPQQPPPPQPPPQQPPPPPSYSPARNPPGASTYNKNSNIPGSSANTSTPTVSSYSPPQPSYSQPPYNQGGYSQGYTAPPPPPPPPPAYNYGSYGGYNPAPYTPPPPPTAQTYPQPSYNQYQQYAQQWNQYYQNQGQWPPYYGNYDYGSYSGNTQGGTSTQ

| Variant | effect of a mutation on the interaction |
| --- | --- |
| M1032R | with no effect |

Variants of: B1
Conditions: with zch10_human ZCCHC10, Q8TBK6
zch10_human ZCCHC10, Q8TBK6, sequence (Q8TBK6 whole entry): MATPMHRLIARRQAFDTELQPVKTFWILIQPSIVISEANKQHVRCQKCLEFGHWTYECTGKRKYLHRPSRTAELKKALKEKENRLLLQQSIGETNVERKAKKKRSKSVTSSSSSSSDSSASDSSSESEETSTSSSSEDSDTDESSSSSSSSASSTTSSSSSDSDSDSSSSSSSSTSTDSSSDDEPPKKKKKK

| Variant | effect of a mutation on the interaction |
| --- | --- |
| M1032R | disrupting interaction strength |

Variants of: B2
Conditions: with gpsm1_human GPSM1, Q86YR5

| Variant | effect of a mutation on the interaction |
| --- | --- |
| R78H | with no effect |

Variants of: B3
Conditions: with zbt43_human ZBTB43, O43298

| Variant | effect of a mutation on the interaction |
| --- | --- |
| E295K | disrupting interaction strength |
